Assay results from patent publication US20150183877A1 (Eli Lilly, published 2015).

Legend:
[1] = molecular target: T1, IL-17 (SEQ ID NO:80), hIL-17 with C-terminal FlagHis tag (human); test: SPR (Biacore 3000): antibody captured on anti-human Fc, saturating IL-17 injected; RU of IL-17 per RU captured, relative to WT IgG
T1 construct: The entry holds the IL-17 part and the Flag-His tag
Protocol: The extent of HC/LC assembly is assessed using a kinetic Biacore experiment. Briefly, kinetic surface Plasmon resonance (SPR) experiments are performed using a Biacore 3000 (GE Healthcare). IgG-TCR proteins are captured onto CM5 sensorchip surfaces with an immobilized goat anti-human IgG-Fc polyclonal antibody (Jackson ImmunoResearch, Cat. #109-005-098). The goat polyclonal antibody immobilization is achieved by injecting the protein (at 50 μg/mL, pH 5) over an NHS/EDC activated sensorchip surface followed by blocking with ethanolamine (as described by manufacturer). The IgG or IgG-TCRs are captured onto the anti-human Fc sensorchip surface by injecting 10 μL of protein at 0.1 and 0.5 mg/mL using a 2 […]. Flow rates are increased to 10 μL/min followed by secondary 30 μL injections of IL-17 (SEQ ID NO:80) at 10 and 50 nM. Following a 15 minute dissociation period, the flow rate is increased to 60 μL/min and sensorchip surfaces are regenerated using two consecutive 10 μL injections of 0.1 M glycine, pH 2.0.
The experiment measures the percent activity by relating the amount of captured IgG or IgG-TCR (based on resonance units) with the secondary response generated using a saturating level of IL-17. The percent activity of each IgG-TCR is calculated based on a comparison with the WT IgG: […]

[2] = molecular target: T2, hEGFR-Fc (Cat. #344-ER-050, R&D systems) (human, UniProt P00533 25-645); test: EGFR/HER-2 sandwich ELISA: hEGFR-Fc coat, compound titrated, detection with 0.2 µg/mL hHER-2-Histag and anti-His-HRP
T2 construct: Bought reagent; not shown: Fc part of the bought fusion
Protocol: (§1) Specifically, clear 96-well round bottom high binding microtiter plates (Greiner) are coated overnight at 2-8° C. with 50 μL/well 1 μg/mL hEGFR-Fc (Cat. #344-ER-050, R&D systems) in a 50 mM Na₂CO₃ pH 9.4 buffer. The plate is washed 4× times with PBST and blocked with 100 μL/well casein buffer (Pierce) for 1 hr at 37° C. The plate is then washed 4× times with PBST and test compounds are added at 50 μL/well and 30 μg/mL […] and serially diluted 1:2 down the plate. The test compounds are incubated on the plate for 1 hr at 37° C. The plate is washed 4× times with PBST and 50 μL/well 0.2 μg/mL hHER-2-Histag (Sino Biologics) is added for 1 hr at 37° C. The plate is then washed 4× times with PBST followed by the addition of a 50 μL/well secondary anti-Histag-HRP antibody (PENTA-His-HRP, Qiagen) diluted 1:1000 in PBST. The secondary antibody is incubated for 1 hr at 37° C. The plate is then washed 4× times with PBST and 100 μL/well 1-component 3,3′,5,5′-Tetramethylbenzidine (TMB) substrate is added (KPL laboratories). After approximately 10 minutes, 100 μL/well 1% H₃PO₄ (in H₂O) is added to quench the reaction. Absorbance (450 nm) of every well in the plate is read using a SpectraMax UV plate reader (Molecular Devices).

[3] = molecular target: T3, hHER-2-Histag (Sino Biologics) (human, UniProt P04626 23-652); test: EGFR/HER-2 sandwich ELISA: hEGFR-Fc coat, test compound, detection with hHER-2-Histag and anti-His-HRP
T3 construct: Bought reagent; not shown: His tag
Protocol: as §1

T1 sequence (chain, as listed by the source limits assumed): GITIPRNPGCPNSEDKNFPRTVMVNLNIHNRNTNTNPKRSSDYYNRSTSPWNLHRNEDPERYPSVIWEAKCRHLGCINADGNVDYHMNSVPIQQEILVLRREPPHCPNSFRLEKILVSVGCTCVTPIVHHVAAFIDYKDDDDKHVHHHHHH

Binder | Activity by kinetic Biacore (percent activity relative to WT IgG) [1] [%] | further results
TCR3 (anti-IL-17 IgG-TCR, truncated Cβ for CH1, truncated Cα for CL) (antibody) heavy: not shown light: DIVMTQTPLSLSVTPGQPASISCRSSRSLVHSRGNTYLHWYLQKPGQSPQLLIYKVSNRFIGVPDRFSGSGSGTDFTLKISRVEAEDVGVYYCSQSTHLPFTFGQGTKLEIKIQNPDPAVYQLRDSKSSDKSVCLFTDFDSQTNVSQSKDSDVYITDKTVLDMRSMDFKSNSAVAWSNKSDFACANAFNNSIIPEDTFFPSPESSCDVK | 17 | 
TCR2 (anti-IL-17 IgG-TCR, Cα for CH1, Cβ for CL) (antibody, IgG-TCR format with IgG4PAA hinge-Fc) heavy: not shown light: DIVMTQTPLSLSVTPGQPASISCRSSRSLVHSRGNTYLHWYLQKPGQSPQLLIYKVSNRFIGVPDRFSGSGSGTDFTLKISRVEAEDVGVYYCSQSTHLPFTFGQGTKLEIKEDLNKVFPPEVAVFEPSEAEISHTQKATLVCLATGFFPDHVELSWWVNGKEVHSGVSTDPQPLKEQPALNDSRYCLSSRLRVSATFWQNPRNHFRCQVQFYGLSENDEWTQDRAKPVTQIVSAEAWGRADCGFTS | 35 | 
TCR8 (anti-IL-17 IgG-TCR, truncated Cα for CH1, Cβ for CL) (antibody, IgG-TCR format with IgG4PAA hinge-Fc) heavy: not shown light: DIVMTQTPLSLSVTPGQPASISCRSSRSLVHSRGNTYLHWYLQKPGQSPQLLIYKVSNRFIGVPDRFSGSGSGTDFTLKISRVEAEDVGVYYCSQSTHLPFTFGQGTKLEIKEDLNKVFPPEVAVFEPSEAEISHTQKATLVCLATGFFPDHVELSWWVNGKEVHSGVSTDPQPLKEQPALNDSRYCLSSRLRVSATFWQNPRNHFRCQVQFYGLSENDEWTQDRAKPVTQIVSAEAWGRADCGFTS | 48 | 
C-mTCRpG1 (bispecific antibody, human IgG1, kappa, Anti-EGFR (matuzumab TCR-Fab) / anti-HER-2 (pertuzumab IgG-Fab) IgG-(Fab)2, Format 1) heavy: not shown light 1: not shown light 2: DIQMTQSPSSLSASVGDRVTITCSASSSVTYMYWYQQKPGKAPKLLIYDTSNLASGVPSRFSGSGSGTDYTFTISSLQPEDIATYYCQQWSSHIFTFGQGTKVEIKKVFPPEVAVFEPSEAEISHTQKATLVCLATGFFPDHVELSWWVNGKEVHSGVSTDPQPLKEQPALNDSRYCLSSRLRVSATFWQNPRNHFRCQVQFYGLSENDEWTQDRAKPVTQIVSAEAWGRADC |  | EC50 [2]: < 1 nM
N-mTCRpG1 (bispecific antibody, human IgG1, kappa, Anti-EGFR (matuzumab TCR-Fab) / anti-HER-2 (pertuzumab IgG) IgG-(Fab)2, Format 3; also called N-mTCRpG1ds) heavy: not shown light 1: not shown light 2: DIQMTQSPSSLSASVGDRVTITCSASSSVTYMYWYQQKPGKAPKLLIYDTSNLASGVPSRFSGSGSGTDYTFTISSLQPEDIATYYCQQWSSHIFTFGQGTKVEIKKVFPPEVAVFEPSEAEISHTQKATLVCLATGFFPDHVELSWWVNGKEVHSGVSTDPQPLKEQPALNDSRYCLSSRLRVSATFWQNPRNHFRCQVQFYGLSENDEWTQDRAKPVTQIVSAEAWGRADC |  | EC50 [2]: 2 nM
mTCR-G1(-) (antibody, human IgG1, Matuzumab Fv in IgG-TCR format (anti-EGFR IgG-TCR control)) heavy: not shown light: DIQMTQSPSSLSASVGDRVTITCSASSSVTYMYWYQQKPGKAPKLLIYDTSNLASGVPSRFSGSGSGTDYTFTISSLQPEDIATYYCQQWSSHIFTFGQGTKVEIKKVFPPEVAVFEPSEAEISHTQKATLVCLATGFFPDHVELSWWVNGKEVHSGVSTDPQPLKEQPALNDSRYCLSSRLRVSATFWQNPRNHFRCQVQFYGLSENDEWTQDRAKPVTQIVSAEAWGRADC |  | binding result [3]: no binding (tested: 30 µg/mL (20 nM), serially diluted 1:2)
anti-human IL-17 IgG4/κ antibody (antibody, Parent IgG4/kappa antibody of the IgG-TCR constructs TCR1-TCR8; also called Anti-IL17/IgG4; Anti-17 IgG4) heavy: not shown light: DIVMTQTPLSLSVTPGQPASISCRSSRSLVHSRGNTYLHWYLQKPGQSPQLLIYKVSNRFIGVPDRFSGSGSGTDFTLKISRVEAEDVGVYYCSQSTHLPFTFGQGTKLEIKRTVAAPSVFIFPPSDEQLKSGTASVVCLLNNFYPREAKVQWKVDNALQSGNSQESVTEQDSKDSTYSLSSTLTLSKADYEKHKVYACEVTHQGLSSPVTKSFNRGEC | 100 | 
TCR4 (anti-IL-17 IgG-TCR, truncated Cα for CH1, truncated Cβ for CL) (antibody, IgG-TCR format with IgG4PAA hinge-Fc) heavy: not shown light: DIVMTQTPLSLSVTPGQPASISCRSSRSLVHSRGNTYLHWYLQKPGQSPQLLIYKVSNRFIGVPDRFSGSGSGTDFTLKISRVEAEDVGVYYCSQSTHLPFTFGQGTKLEIKKVFPPEVAVFEPSEAEISHTQKATLVCLATGFFPDHVELSWWVNGKEVHSGVSTDPQPLKEQPALNDSRYCLSSRLRVSATFWQNPRNHFRCQVQFYGLSENDEWTQDRAKPVTQIVSAEAWGRADCGFTS | 54 | 
TCR6 (anti-IL-17 IgG-TCR, Cα for CH1, truncated Cβ for CL) (antibody, IgG-TCR format with IgG4PAA hinge-Fc) heavy: not shown light: DIVMTQTPLSLSVTPGQPASISCRSSRSLVHSRGNTYLHWYLQKPGQSPQLLIYKVSNRFIGVPDRFSGSGSGTDFTLKISRVEAEDVGVYYCSQSTHLPFTFGQGTKLEIKKVFPPEVAVFEPSEAEISHTQKATLVCLATGFFPDHVELSWWVNGKEVHSGVSTDPQPLKEQPALNDSRYCLSSRLRVSATFWQNPRNHFRCQVQFYGLSENDEWTQDRAKPVTQIVSAEAWGRADCGFTS | 35 | 
